Data published in patent US10098962B2, “Glycosaminoglycan derivative and method for producing same” (Seikagaku Corporation, priority 2013, dated 2018).
Where two headings read alike, the source gives them in different places. Blank lines part the entries; values can stand above or below the compound they belong to.

Columns and labels:
[1] = rat, in vivo, inhaled or intranasal
[2] = test system: rat model of muscle pain disorder caused by silver nitrate; experiment: Effect of diclofenac coupled hyaluronic acids in rat model of muscle pain induced by silver nitrate (Test Example B5); assay type: in vivo; conditions: for duration of analgesic effect: 1% (w/v), intramuscular, observed for 3 days; for pain score vs control group / muscle pressure pain threshold value vs control group: i.m. 100 μL/site, 1% (w/v) in citric acid buffer, 24, 48, 72 h after administration; for pain score vs control group: FIG. 7; for muscle pressure pain threshold value vs control group: FIG. 8
Description: As an inflammatory agent, 0.1 mol/L silver nitrate solution was filtered through a 0.22 μm filter and used. […] Accordingly, a rat model of muscle pain disorder caused by silver nitrate was prepared. […] At Hour 24 after the administration of 0.1 mol/L silver nitrate solution, the rats were divided into 3 groups, and each group was administered with either the test substance or citric acid buffer solution. […] Furthermore, ** and * represent, in the parametric Tukey test, **p<0.01 and *p<0.05 (vs Control), respectively. […] The length of move of the weight at which a pain-related behavior like avoidance is shown was read to one decimal place. This operation was repeated three times in total, and the median value was taken as the muscle pressure pain threshold value. […] Furthermore, *** represents, in the parametric Tukey test, ***p<0.001 (vs Control).

[3] = test system: rat model of muscle pain disorder caused by carrageenan; experiment: Effect of diclofenac coupled sodium hyaluronates in rat model of muscle pain disorder caused by carrageenan, 14 days (Test Example B7); assay type: in vivo; conditions: for muscle pressure pain threshold value vs control group: 1% (w/v) i.m. 14 days before carrageenan, measured 3 h after carrageenan, FIG. 10; for duration of analgesic effect: 1% (w/v), intramuscular administration
Description: The following were prepared as a test substance in which citric acid buffer is used as a solvent. As an inflammatory agent, 10 mg/mL carrageenan solution was used. […] A rat (Crj: SD line (SPF), male, 7-week old) was fixed dorsally under general anesthesia, and a broad region around the left gastrocnemius muscle was shaved using a shaver.

[4] = Release test for conjugates obtained from Examples 26 to 28, citrate buffer pH 5.1 (Test Example A7); assay type: physicochemical
Description: The amount of the dissociated diclofenac component which is present in a solution in an initial state (storage: Day 0) immediately after the dissolution was subjected to quantitative analysis based on ODS-HPLC. […] Meanwhile, the method for pre-treatment of HPLC sample is described below. Methanol (1 mL) was added to the stored solution (1 g). After dilution and addition of acetonitrile to 20 mL, the hyaluronic acid component was allowed to precipitate. The obtained supernatant was used as a HPLC sample. HPLC conditions are as follows. column: […] flow rate: 1 mL/min temperature: 35° C.

[5] = test system: rat model of muscle pain disorder caused by carrageenan
Description: (§2) As an inflammatory agent, 10 mg/mL carrageenan solution was used. As general anesthesia, inhalation of isoflurane (concentration of 3.0%, flow rate of 2.0 L/min) filled in a small animal anesthetizer (TK-4, manufactured by BioMachinery Co., Ltd.) was used.
(§3) A rat (Crj: SD line (SPF), male, 8-week old) was fixed dorsally under general anesthesia, and a broad region around the left gastrocnemius muscle was shaved using a shaver. The area for injection was sprayed with 70% alcohol for sterilization, and by using an injection tube applied with needle for subcutaneous insulin administration (MYJECTOR (registered trade mark), TERUMO CORPORATION), each test solution was injected (volume of 100 μL/site) for intramuscular administration into the left medial gastrocnemius muscle of a rat.
(§4) 10 Days after administering the test substance, each group was administered with 10 mg/mL carrageenan solution. As for the administration method, like the test substance, under inhalation of isoflurane, the region around the gastrocnemius muscle was sprayed with 70% alcohol for sterilization, and by using an injection tube applied with 29 G needle for subcutaneous insulin administration, it was injected (volume of 100 μL/site) for intramuscular administration into the left gastrocnemius muscle of a rat. […]

[6] = Release test for conjugates obtained from Examples 18 to 21 (Test Example A5); assay type: physicochemical; conditions: 0.1% in 20 mM sodium phosphate buffer pH 7.0, 36°C
From the text: The amount of the dissociated diclofenac component which is present in an initial state (storage: Day 0) immediately after the dissolution, and the amount of diclofenac ester which has been forced to dissociate by using a base were subjected to quantitative analysis based on ODS-HPLC. […] From the ratio between the obtained amount of the dissociated diclofenac component at each time point and the amount of dissociated diclofenac component resulting from forced dissociation, the dissociation ratio (%) was calculated. For a pre-treatment of a HPLC sample, OASIS HLB was used, and a fraction eluted by acetonitrile was analyzed. HPLC conditions are as follows. column: […] temperature: 35° C.

[7] = Release test for conjugates obtained from Examples 22 to 25 (Test Example A6); assay type: physicochemical; conditions: 0.1% in 20 mM sodium phosphate buffer pH 7.0, 36°C
From the text: (§1) The amount of the dissociated diclofenac component which is present in an initial state (storage: Day 0) immediately after the dissolution, and the amount of diclofenac ester which has been forced to dissociate by using a base were subjected to quantitative analysis based on ODS-HPLC. […] From the ratio between the obtained amount of the dissociated diclofenac component at each time point and the amount of dissociated diclofenac component resulting from forced dissociation, the dissociation ratio (%) was calculated. For a pre-treatment of a HPLC sample, OASIS HLB was used, and a fraction eluted by acetonitrile was analyzed. HPLC conditions are as follows. column: […] flow rate: 1 mL/min temperature: 35° C.

[8] = Release test for conjugates obtained from Examples 15 to 17 (Test Example A4); assay type: physicochemical; conditions: 0.1% in 20 mM sodium phosphate buffer pH 7.0, 36°C
From the text: as §1

[9] = test system: rat model of muscle pain disorder caused by silver nitrate; experiment: Effect of NSAID coupled chondroitin sulfates in rat model of muscle pain induced by silver nitrate (Test Example B3); assay type: in vivo; conditions: i.m. 100 μL/site, 1% DF-CS or 5% other conjugates in PBS, 24, 48, 72 h after administration
Description: As an inflammatory agent, 0.1 mol/L silver nitrate solution was filtered through a 0.22 μm filter and used. […] Accordingly, a rat model of muscle pain disorder caused by silver nitrate was prepared. […] Furthermore, *** and * represent, in the parametric Tukey test, ***p<0.001 and *p<0.05 (vs Control), respectively. Score 0: Normal Score 1: Mild claudication Score 2: Severe claudication Score 3: Walking on three legs […] The length of move of the weight at which a pain-related behavior like avoidance is shown was read to one decimal place. This operation was repeated three times in total, and the median value was taken as the muscle pressure pain threshold. […] Furthermore, *** and * represent, in the parametric Tukey test, ***p<0.001 and *p<0.05 (vs Control), respectively.

[10] = test system: rat model of muscle pain disorder caused by carrageenan; experiment: Effect of diclofenac coupled chondroitin sulfate in rat model of muscle pain disorder caused by carrageenan, 7 days (Test Example B8); assay type: in vivo
Description: The followings were prepared as a test substance in which PBS is used as a solvent.
as §2
A rat (Crj: SD line (SPF), male, 9-week old) was fixed dorsally under general anesthesia, and a broad region around the left gastrocnemius muscle was shaved using a shaver. The area for injection was sprayed with 70% alcohol for sterilization, and by using an injection tube applied with needle for subcutaneous insulin administration (MYJECTOR (registered trade mark), TERUMO CORPORATION), the test solution was injected (volume of 100 μL/site) for intramuscular administration into the left gastrocnemius muscle of a rat.
7 Days after administering the test substance, each group was administered with 10 mg/mL carrageenan solution. As for the administration method, like the test substance, under inhalation of isoflurane, the region around the gastrocnemius muscle was sprayed with 70% alcohol for sterilization, and by using an injection tube applied with 29 G needle for subcutaneous insulin administration, it was injected (volume of 100 μL/site) for intramuscular administration into the left gastrocnemius muscle of a rat. […]

[11] = test system: rat model of muscle pain disorder caused by carrageenan; experiment: Effect of diclofenac coupled hyaluronic acid in rat model of muscle pain disorder caused by carrageenan, 10 days (Test Example B6); assay type: in vivo
Description: The following were prepared as a test substance in which citric acid buffer is used as a solvent.
as §2, §3, §4

[12] = Release test for conjugates obtained from Examples 26 and 32 at 60, 40, 25°C (Test Example A9); assay type: physicochemical
Description: The amount of the dissociated diclofenac component which is present in a solution in an initial state (storage: Day 0) immediately after the dissolution was subjected to quantitative analysis based on ODS-HPLC. Other aliquot was stored at 60° C., 40° C., or 25° C. immediately after the dissolution, the decomposition amount of diclofenac ester was similarly subjected to quantitative analysis after lapse of the each designated time. From the ratio between the obtained amount of the dissociated diclofenac component at each time point and the amount of dissociated diclofenac component resulting from forced dissociation, the dissociation ratio (%) was calculated. For a pre-treatment of a HPLC sample, OASIS HLB was used, and a fraction eluted by acetonitrile was analyzed. HPLC conditions are as follows. column: […] flow rate: 1 mL/min temperature: 35° C.

[13] = 1% in sodium citrate buffer pH 5.1, 40°C, after 4 weeks
[14] = 1% in sodium citrate buffer pH 5.1, immediately after dissolution
[15] = 1% (w/v), intramuscular administration

AUC0-t [1]: 21371 ng·h/g | AUC0-∞ [1]: 21797 ng·h/g
Compound: C[C@H]1C[C@H]2[C@@H]3CCC4=CC(=O)C=C[C@]4(C)[C@@]3(F)[C@@H](O)C[C@]2(C)[C@@]1(O)C(=O)CO [Betamethasone]

Compound: Diclofenac(1-amino-2-propanol)-hyaluronic acid
duration of analgesic effect [2]: 3 days | pain score vs control group [2]: improved in a significant sense | muscle pressure pain threshold value vs control group [2]: increased in a significant sense | muscle pressure pain threshold value vs control group [3]: increased in a significant sense | duration of analgesic effect [3]: 14 days

Compound: Diclofenac(serine ethyl ester)-hyaluronic acid
Content of dissociated diclofenac (w/w %) [4, 13]: 0.72 w/w % | Content of dissociated diclofenac (w/w %) [4, 14]: 0.05 w/w %

Compound: Diclofenac(threonine ethyl ester)-hyaluronic acid
Content of dissociated diclofenac (w/w %) [4, 13]: 0.19 w/w % | Content of dissociated diclofenac (w/w %) [4, 14]: 0.00 w/w %

Compound: diclofenac (1-amino-2-propanol)-chondroitin sulfate [Example A4-1]
muscle pressure pain threshold value vs control group ([5]; 1% (w/v) i.m. 10 days before carrageenan, FIG. 12): increased in a significant sense | duration of analgesic effect [5, 15]: 10 days

Compound: diclofenac (1-amino-3,3-dimethylbutan-2-ol)-chondroitin sulfate [Example A5-1]
diclofenac dissociation ratio ([6]; day 0): 0.0% | diclofenac dissociation ratio ([6]; day 1): 0.0% | diclofenac dissociation ratio ([6]; day 2): 0.1% | diclofenac dissociation ratio ([6]; day 4): 0.1% | diclofenac dissociation ratio ([6]; day 8): 0.2%

Compound: diclofenac (1-amino-3,3-dimethylbutan-2-ol)-hyaluronic acid [Example A6-1]
diclofenac dissociation ratio ([7]; day 0): 0.0% | diclofenac dissociation ratio ([7]; day 1): 0.1% | diclofenac dissociation ratio ([7]; day 2): 0.2% | diclofenac dissociation ratio ([7]; day 4): 0.4% | diclofenac dissociation ratio ([7]; day 8): 0.8%

Compound: diclofenac (2-amino-1-cyclohexylethan-1-ol)-chondroitin sulfate [Example A5-3]
diclofenac dissociation ratio ([6]; day 0): 0.0% | diclofenac dissociation ratio ([6]; day 1): 0.1% | diclofenac dissociation ratio ([6]; day 2): 0.1% | diclofenac dissociation ratio ([6]; day 4): 0.2% | diclofenac dissociation ratio ([6]; day 8): 0.4%

Compound: diclofenac (2-amino-1-cyclohexylethan-1-ol)-hyaluronic acid [Example A6-3]
diclofenac dissociation ratio ([7]; day 0): 0.0% | diclofenac dissociation ratio ([7]; day 1): 0.2% | diclofenac dissociation ratio ([7]; day 2): 0.4% | diclofenac dissociation ratio ([7]; day 4): 0.7% | diclofenac dissociation ratio ([7]; day 8): 1.6%

Compound: diclofenac (4-amino-3-hydroxybutyric acid ethyl ester)-chondroitin sulfate [Example A5-4]
diclofenac dissociation ratio ([6]; day 0): 0.1% | diclofenac dissociation ratio ([6]; day 1): 0.4% | diclofenac dissociation ratio ([6]; day 2): 0.9% | diclofenac dissociation ratio ([6]; day 4): 1.7% | diclofenac dissociation ratio ([6]; day 8): 3.3%

Compound: diclofenac (4-amino-3-hydroxybutyric acid ethyl ester)-hyaluronic acid [Example A6-4]
diclofenac dissociation ratio ([7]; day 0): 0.2% | diclofenac dissociation ratio ([7]; day 1): 1.7% | diclofenac dissociation ratio ([7]; day 2): 3.2% | diclofenac dissociation ratio ([7]; day 4): 6.2% | diclofenac dissociation ratio ([7]; day 8): 13.0%

Compound: diclofenac (serine ethyl ester)-chondroitin sulfate [Example A4-2]
diclofenac dissociation ratio ([8]; day 0): 0.0% | diclofenac dissociation ratio ([8]; day 1): 10.9% | diclofenac dissociation ratio ([8]; day 2): 16.9% | diclofenac dissociation ratio ([8]; day 4): 31.9% | diclofenac dissociation ratio ([8]; day 8): 42.2%

Compound: diclofenac (threonine ethyl ester)-chondroitin sulfate [Example A4-3]
diclofenac dissociation ratio ([8]; day 0): 0.1% | diclofenac dissociation ratio ([8]; day 1): 2.0% | diclofenac dissociation ratio ([8]; day 2): 4.0% | diclofenac dissociation ratio ([8]; day 4): 7.2% | diclofenac dissociation ratio ([8]; day 8): 10.5%

Compound: diclofenac-(2-aminoethanol)-chondroitin sulfate [DF-CS]
pain score vs control group ([9]; FIG. 3): improved in a significant sense | muscle pressure pain threshold value vs control group ([9]; FIG. 4): increased in a significant sense | muscle pressure pain threshold value vs control group ([10]; 1% (w/v) i.m. 7 days before carrageenan, measured 3 h after carrageenan, FIG. 11): increased in a significant sense | duration of analgesic effect [10, 15]: 7 days

Compound: diclofenac-(2-aminoethanol)-hyaluronic acid
muscle pressure pain threshold value vs control group ([11]; 1% (w/v) i.m. 10 days before carrageenan, measured 3 h after carrageenan, FIG. 9): increased in a significant sense | duration of analgesic effect [11, 15]: 10 days | duration of analgesic effect [2]: 3 days | pain score vs control group [2]: improved in a significant sense | muscle pressure pain threshold value vs control group [2]: increased in a significant sense | muscle pressure pain threshold value vs control group [3]: not increased | duration of analgesic effect [3]: less than 14 days | diclofenac dissociation ratio ([12]; 1% in sodium citrate buffer pH 5.1, 25°C, 0 y (year)): 1.3% | diclofenac dissociation ratio ([12]; 1% in sodium citrate buffer pH 5.1, 25°C, 0.5 y (year)): 6.2% | diclofenac dissociation ratio ([12]; 1% in sodium citrate buffer pH 5.1, 25°C, 1 y (year)): 10.9% | diclofenac dissociation ratio ([12]; 1% in sodium citrate buffer pH 5.1, 40°C, 0 m (month)): 1.3% | diclofenac dissociation ratio ([12]; 1% in sodium citrate buffer pH 5.1, 40°C, 4 m (month)): 13.5% | diclofenac dissociation ratio ([12]; 1% in sodium citrate buffer pH 5.1, 40°C, 6 m (month)): 18.2% | diclofenac dissociation ratio ([12]; 1% in sodium citrate buffer pH 5.1, 40°C, 9 m (month)): 23.7% | diclofenac dissociation ratio ([12]; 1% in sodium citrate buffer pH 5.1, 40°C, 12 m (month)): 28.2% | diclofenac dissociation ratio ([12]; 1% in sodium citrate buffer pH 5.1, 60°C, day 0): 1.3% | diclofenac dissociation ratio ([12]; 1% in sodium citrate buffer pH 5.1, 60°C, day 7): 8.1% | diclofenac dissociation ratio ([12]; 1% in sodium citrate buffer pH 5.1, 60°C, day 14): 12.7% | diclofenac dissociation ratio ([12]; 1% in sodium citrate buffer pH 5.1, 60°C, day 21): 16.4%
